Results taken from patent US20240228660A1 (IP2IPO INNOVATIONS, published 2024).

Molecular target: T1, human full-length VWF (human, UniProt P04275 764-2813)
Test: SPR, Biacore T200, antibody captured on Protein A, full-length VWF as analyte, single-cycle kinetics
Protocol: (§1) Antibodies were captured on Protein A sensor chip. The system was purged using running buffer (10 mM HEPES pH 7.4, 300 mM NaCl, 3 mM EDTA, 0.05% P20) and a series S Protein A chip was docked in the Biacore T200. The surface was conditioned with 10 mM glycine-HCl pH 1.5 regeneration solution (3 injections). Each antibody was diluted to ˜0.8 μg/ml in running buffer to capture ˜350 RU on flow cells 2, 3 and 4 (flow cell 1 used as in-line reference cell). Single-cycle kinetic analysis of human full-length VWF binding to antibodies was performed using the following parameters:

| Kd [pM] | koff [s⁻¹] | kon [M⁻¹ s⁻¹] | Binder |
| --- | --- | --- | --- |
| 0.231 | 2.74e-08 | 119000 | 1-A2_H0_L0 (antibody, human IgG1, kappa, V domains shown, humanised, human IgG1 kappa) VH: QVQLVESGGGVVQPGRSLRLSCAASGFTFSSNAMNWVRQAPGKGLEWVAGIYGHDTSYYAAWAKGRFTISRDNSKNTLYLQMNSLRAEDTAVYYCARGFIYFDIWGQGTLVTVSS VL: DIQMTQSPSSLSASVGDRVTITCLASEDIYSGISWYQQKPGKAPKLLIYGASNLESGVPSRFSGSGSGTDFTLTISSLQPEDFATYYCLGGHSHSTTDLTFGGGTKVEIKT |
| 43.2 | 2.73e-06 | 63200 | 1-A2_H0_L1 (antibody, human IgG1, kappa, V domains shown, humanised, human IgG1 kappa) VH: QVQLVESGGGVVQPGRSLRLSCAASGFTFSSNAMNWVRQAPGKGLEWVAGIYGHDTSYYAAWAKGRFTISRDNSKNTLYLQMNSLRAEDTAVYYCARGFIYFDIWGQGTLVTVSS VL: DIQMTQSPSSLSASVGDRVTITCLASEDIYSGISWYQQKPGKAPKLLIYGASNLESGVPSRFSGSGSGTDYTLTISSLQPEDFATYYCLGGHSHSTTDLTFGGGTKVEIKT |
| 5.89 | 1.4e-07 | 23800 | 1-A2_H1_L1 (antibody, human IgG1, kappa, V domains shown, humanised, human IgG1 kappa) VH: QVQLVESGGGVVQPGRSLRLSCAASGIDLTSNAMNWVRQAPGKGLEWVAGIYGHDTSYYAAWAKGRFTISRDNSKNTLYLQMNSLRAEDTAVYYCARGFIYFDIWGQGTLVTVSS VL: DIQMTQSPSSLSASVGDRVTITCLASEDIYSGISWYQQKPGKAPKLLIYGASNLESGVPSRFSGSGSGTDYTLTISSLQPEDFATYYCLGGHSHSTTDLTFGGGTKVEIKT |
| 18.7 | 6.54e-07 | 34900 | 1-A2_H1_L0 (antibody, human IgG1, kappa, V domains shown, humanised, human IgG1 kappa) VH: QVQLVESGGGVVQPGRSLRLSCAASGIDLTSNAMNWVRQAPGKGLEWVAGIYGHDTSYYAAWAKGRFTISRDNSKNTLYLQMNSLRAEDTAVYYCARGFIYFDIWGQGTLVTVSS VL: DIQMTQSPSSLSASVGDRVTITCLASEDIYSGISWYQQKPGKAPKLLIYGASNLESGVPSRFSGSGSGTDFTLTISSLQPEDFATYYCLGGHSHSTTDLTFGGGTKVEIKT |
| 16.1 | 4.34e-07 | 26900 | 4-H3_H5_VL-par (antibody, human IgG1, kappa, also called 4-H3_H5 (hIgG1)) heavy chain: not shown light chain: AYDMTQTPPSLSASVGETVRIRCLASEDIASGISWYQQKPGKPPTLLIYGASNLESGVPPRFSGSGSGTDYTLTIGGVQAEDAATYYCLGGYSFSSNGLTFGAGTKVEIKTVAAPSVFIFPPSDEQLKSGTASVVCLLNNFYPREAKVQWKVDNALQSGNSQESVTEQDSKDSTYSLSSTLTLSKADYEKHKVYACEVTHQGLSSPVTKSFNRGEC |
| 10.4 | 3.05e-07 | 29300 | 4-H3_H7_VL-par (antibody, human IgG1, kappa, V domains shown, also called 4-H3_H7 (hIgG1)) VH: QVQLVESGGGVVQPGRSLRLSCAASGIDLTSNAMNWVRQAPGKGLEWIGGIYGHDTSYYAAWAKGRFTISRDNSKNTVYLQMNSLRAEDTATYFCARGFIYFDIWGQGTLVTVSS VL: AYDMTQTPPSLSASVGETVRIRCLASEDIASGISWYQQKPGKPPTLLIYGASNLESGVPPRFSGSGSGTDYTLTIGGVQAEDAATYYCLGGYSFSSNGLTFGAGTKVEIKT |

Molecular target: T1, human full-length VWF
Test: as above
Remark: another data set of the same source
Protocol: as §1

| Kd [pM] | koff [s⁻¹] | kon [M⁻¹ s⁻¹] | Binder |
| --- | --- | --- | --- |
| 22.3 |  |  | 1-D5_VH-par_VL-par (antibody, human IgG1, kappa, also called 1-D5_parental (hIgG1)) heavy chain: not shown light chain: DIVMTQTPSSVSAAVGDTVTIQCQASQSINSGLAWYQQKPGQPPKRLIYKASTLASGVPSRFRGSGSGTDFTLTISDLECADAATYYCQSYHYISANGATFGGGTEVVVETVAAPSVFIFPPSDEQLKSGTASVVCLLNNFYPREAKVQWKVDNALQSGNSQESVTEQDSKDSTYSLSSTLTLSKADYEKHKVYACEVTHQGLSSPVTKSFNRGEC |
| 43.4 |  |  | 3-H9_VH-par_VL-par (antibody, human IgG1, kappa, also called 3-H9_parental (hIgG1)) heavy chain: not shown light chain: AIKMTQTPSSVSVAVGGTVTINCQSSQSVYSNNLLSWYQQKPGQPPKLLIYDASTLESGVPSRFKGSGSGTQFTLTISGVQCEDAATYYCQGSYYSSGWYNTFGGGTEVVVETVAAPSVFIFPPSDEQLKSGTASVVCLLNNFYPREAKVQWKVDNALQSGNSQESVTEQDSKDSTYSLSSTLTLSKADYEKHKVYACEVTHQGLSSPVTKSFNRGEC |
| 31.2 | 4.2e-06 | 135000 | 1-D5_H2_VL-par (antibody, human IgG1, kappa, V domains shown, also called 1-D5_H2 (hIgG1)) VH: QQQLVESGGGVVQPGRSLRLSCAASGFSLNNYIMGWVRQAPGKGLEYIGIISTGGSTYYASWAKGRFTISRDSNTMYLQMNSLRAEDTATYFCARGGSSAGAGFNIWGQGTLVTVSS VL: DIVMTQTPSSVSAAVGDTVTIQCQASQSINSGLAWYQQKPGQPPKRLIYKASTLASGVPSRFRGSGSGTDFTLTISDLECADAATYYCQSYHYISANGATFGGGTEVVVET |
| 0.304 | 2.37e-08 | 78000 | 1-D5_H1_VL-par (antibody, human IgG1, kappa, V domains shown, also called 1-D5_H1 (hIgG1)) VH: QVQLVESGGGVVQPGRSLRLSCAASGFSLNNYIMGWVRQAPGKGLEWVAIISTGGSTYYASWAKGRFTISRDNSKNTLYLQMNSLRAEDTAVYYCARGGSSAGAGFNIWGQGTLVTVSS VL: DIVMTQTPSSVSAAVGDTVTIQCQASQSINSGLAWYQQKPGQPPKRLIYKASTLASGVPSRFRGSGSGTDFTLTISDLECADAATYYCQSYHYISANGATFGGGTEVVVET |
| 0.031 | 2.38e-09 | 77000 | 1-D5_H0_VL-par (antibody, human IgG1, kappa, V domains shown, also called 1-D5_H0 (hIgG1)) VH: QVQLVESGGGVVQPGRSLRLSCAASGFTFSNYIMGWVRQAPGKGLEWVAIISTGGSTYYASWAKGRFTISRDNSKNTLYLQMNSLRAEDTAVYYCARGGSSAGAGFNIWGQGTLVTVSS VL: DIVMTQTPSSVSAAVGDTVTIQCQASQSINSGLAWYQQKPGQPPKRLIYKASTLASGVPSRFRGSGSGTDFTLTISDLECADAATYYCQSYHYISANGATFGGGTEVVVET |
| 82.4 | 7.91e-06 | 96000 | 1-D5_VH-par_L1 (antibody, human IgG1, kappa, V domains shown, also called 1-D5_L1 (hIgG1K)) VH: QQQLVESGGRLVTPGTPLTLTCAVSGFSLNNYIMGWVRQAPGKGLEYIGIISTGGSTYYASWAKGRFTISRTSTTMDLKMTSLTTEDTATYFCARGGSSAGAGFNIWGPGTLVTVSS VL: DIQMTQSPSSLSASVGDRVTITCQASQSINSGLAWYQQKPGKAPKRLIYKASTLASGVPSRFSGSGSGTDFTLTISSLQPEDFATYYCQSYHYISANGATFGGGTKVEIKT |
| 50 | 6.59e-06 | 132000 | 1-D5_VH-par_L0 (antibody, human IgG1, kappa, V domains shown, also called 1-D5_L0 (hIgG1K)) VH: QQQLVESGGRLVTPGTPLTLTCAVSGFSLNNYIMGWVRQAPGKGLEYIGIISTGGSTYYASWAKGRFTISRTSTTMDLKMTSLTTEDTATYFCARGGSSAGAGFNIWGPGTLVTVSS VL: DIQMTQSPSSLSASVGDRVTITCQASQSINSGLAWYQQKPGKAPKLLIYKASTLASGVPSRFSGSGSGTDFTLTISSLQPEDFATYYCQSYHYISANGATFGGGTKVEIKT |
| 6.64 | 1.87e-07 | 28200 | 4-H3_H1_VL-par (antibody, human IgG1, kappa, also called 4-H3_H1 (hIgG1)) heavy chain: not shown light chain: AYDMTQTPPSLSASVGETVRIRCLASEDIASGISWYQQKPGKPPTLLIYGASNLESGVPPRFSGSGSGTDYTLTIGGVQAEDAATYYCLGGYSFSSNGLTFGAGTKVEIKTVAAPSVFIFPPSDEQLKSGTASVVCLLNNFYPREAKVQWKVDNALQSGNSQESVTEQDSKDSTYSLSSTLTLSKADYEKHKVYACEVTHQGLSSPVTKSFNRGEC |
| 19.4 | 1.75e-06 | 90000 | 4-H3_H2_VL-par (antibody, human IgG1, kappa, also called 4-H3_H2 (hIgG1)) heavy chain: not shown light chain: AYDMTQTPPSLSASVGETVRIRCLASEDIASGISWYQQKPGKPPTLLIYGASNLESGVPPRFSGSGSGTDYTLTIGGVQAEDAATYYCLGGYSFSSNGLTFGAGTKVEIKTVAAPSVFIFPPSDEQLKSGTASVVCLLNNFYPREAKVQWKVDNALQSGNSQESVTEQDSKDSTYSLSSTLTLSKADYEKHKVYACEVTHQGLSSPVTKSFNRGEC |
| 13.1 | 2.89e-07 | 22100 | 4-H3_H0_VL-par (antibody, human IgG1, kappa, V domains shown, also called 4-H3_H0 (hIgG1)) VH: QVQLVESGGGVVQPGRSLRLSCAASGFTFSSNAMNWVRQAPGKGLEWVAGIYGHDTSYYAAWAKGRFTISRDNSKNTLYLQMNSLRAEDTAVYYCARGFIYFDIWGQGTLVTVSS VL: AYDMTQTPPSLSASVGETVRIRCLASEDIASGISWYQQKPGKPPTLLIYGASNLESGVPPRFSGSGSGTDYTLTIGGVQAEDAATYYCLGGYSFSSNGLTFGAGTKVEIKT |
| 29.4 | 1.59e-06 | 54200 | 4-H3_H3_VL-par (antibody, human IgG1, kappa, V domains shown, also called 4-H3_H3 (hIgG1)) VH: QVQLVESGGGVVQPGRSLRLSCAASGIDLTSNAMNWVRQAPGKGLEWIGGIYGHDTSYYAAWAKGRFTISRDNSKNTVYLQMNSLRAEDTAVYYCARGFIYFDIWGQGTLVTVSS VL: AYDMTQTPPSLSASVGETVRIRCLASEDIASGISWYQQKPGKPPTLLIYGASNLESGVPPRFSGSGSGTDYTLTIGGVQAEDAATYYCLGGYSFSSNGLTFGAGTKVEIKT |

Molecular target: T1, human full-length VWF
Test: as above
Remark: another data set of the same source
Protocol: as §1

| Kd [pM] | koff [s⁻¹] | kon [M⁻¹ s⁻¹] | Binder |
| --- | --- | --- | --- |
| 111 | 2.12e-05 | 192000 | 3-H9_VH-par_L0 (antibody, human IgG1, kappa, V domains shown, also called 3-H9_L0 (hIgG1K)) VH: SQSLEESGGRLVTPGTPLTLTCSVSGFSLSNYDMSWVRQAPGKGLEWIGSIHAIGITYYANWAEGRFTISKTSTTVDLKMTSLTTEDTATYFCARGLVDLNMWGPGTLVTVSS VL: DIQMTQSPSSLSASVGDRVTITCQSSQSVYSNNLLSWYQQKPGKAPKLLIYDASTLESGVPSRFSGSGSGTDFTLTISSLQPEDFATYYCQGSYYSSGWYNTFGGGTKVEIKT |
| 12.4 | 1.14e-06 | 92000 | 3-H9_H2_VL-par (antibody, human IgG1, kappa, V domains shown, also called 3-H9_H2 (hIgG1)) VH: QQLVESGGGVVQPGRSLRLSCAASGFSLSNYDMSWVRQAPGKGLEWIGSIHAIGITYYANWAEGRFTISRDKNTVYLQMNSLRAEDTATYFCARGLVDLNMWGQGTLVTVSS VL: AIKMTQTPSSVSVAVGGTVTINCQSSQSVYSNNLLSWYQQKPGQPPKLLIYDASTLESGVPSRFKGSGSGTQFTLTISGVQCEDAATYYCQGSYYSSGWYNTFGGGTEVVVET |
| 3.13 | 7.18e-08 | 22900 | 3-H9_H1_VL-par (antibody, human IgG1, kappa, V domains shown, also called 3-H9_H1 (hIgG1)) VH: not shown VL: AIKMTQTPSSVSVAVGGTVTINCQSSQSVYSNNLLSWYQQKPGQPPKLLIYDASTLESGVPSRFKGSGSGTQFTLTISGVQCEDAATYYCQGSYYSSGWYNTFGGGTEVVVET |
